{"source": "patent US20220306744A1", "about": "(CRESCENDO BIOLOGICS, published 2022)", "binders": {"B1": {"name": "1.92b-4GS-1.39a (other)", "chain": "EVQLVESGGGLVKPGGSLRLSCAASGFTFSDESMTWMRQAPGKGLEWVSYISSGGGVKFYADSVKGRFTISRDNAKNSLYLQMNSLRAEDTAVYYCAREAPLRLGESPHDAFDISGQGTMVTVSSGGGGSGGGGSGGGGSGGGGSEVQLVESGGGLVQPGRSLRLSCAASGFTFDDYALHWVRQAPGKDLEWVSGISWNGGSYGYADSVKGRFTISRDNAKNSLYLQMNSLRAEDTALYYCVREKGPGLTGSTADYYGLDAWGQGTMVTVSS", "notes": "Biparatopic VH-linker-VH; built from its parts here because it is not clear whether 1112 is the protein or the nucleic acid"}, "B2": {"name": "1.92b-4GS-1.62a (other)", "chain": "EVQLVESGGGLVKPGGSLRLSCAASGFTFSDESMTWMRQAPGKGLEWVSYISSGGGVKFYADSVKGRFTISRDNAKNSLYLQMNSLRAEDTAVYYCAREAPLRLGESPHDAFDISGQGTMVTVSSGGGGSGGGGSGGGGSGGGGSEVQLVESGGGVVRPGGSLRLSCAASGFTFDDYAMSWVRQAPGKGLEWVSGITWNAGSTGYADSVKGRFTISRDNAKNSLYLQMNSLRAEDTALYYCVRDKYSYAWSYDDFDIWGQGTMVTVSS", "notes": "Biparatopic VH-linker-VH; also called 1.92-4GS-1.62a; 1.92b-4gs-2.12a"}}, "key": {"[1]": {"biological_target": "T1, human PD-1 expressed on cells (CHO TREX human PD1 cell line, full-length human PD-1 sequence) (human, UniProt Q15116 21-288)", "T1 construct": "Also used for human PD-1 on Jurkat reporter cells, on PathHunter cells and on PHA-stimulated human CD4+ T cells; also called CHO human PD1 cells; CHO human PD-1 cells", "T1 sequence (Q15116 21-288)": "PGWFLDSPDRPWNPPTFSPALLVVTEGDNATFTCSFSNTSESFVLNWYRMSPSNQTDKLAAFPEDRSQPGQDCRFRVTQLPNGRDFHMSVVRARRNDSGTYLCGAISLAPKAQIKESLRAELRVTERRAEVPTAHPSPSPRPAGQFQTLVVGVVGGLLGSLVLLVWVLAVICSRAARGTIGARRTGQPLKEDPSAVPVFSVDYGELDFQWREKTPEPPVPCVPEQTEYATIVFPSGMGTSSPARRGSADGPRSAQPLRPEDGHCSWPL", "test": "epitope competition assay on CHO human PD1 cells (labelled VH 1.51a, 1.57b or 1.1a, not specified) after 0 days in human serum"}, "[2]": {"biological_target": "T1, human PD-1 expressed on cells (CHO TREX …)", "test": "epitope competition assay on CHO human PD1 cells (labelled VH not specified) after 0 days in human serum"}}}
{"binder": "B1", "values": [{"measurement": "IC50", "setting": "[1]", "value": 0.9, "unit": "nM"}]}
{"binder": "B2", "values": [{"measurement": "IC50", "setting": "[2]", "value": 1.4, "unit": "nM"}]}
